Test: label from the status in PepcDB records
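Note: failed if final PepcDB status was selected cloned or expressed and not failed if soluble or beyond.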

NENNTVVAETKTSTASETSEPKQVISSKQQLASLYLQAKQSLFKQRALSATMYGLSQKDIGQVISSDMEFYSPENEKQLRAELLSISNTIAGIKLDDADITTKNNQQVMAGLTRYFAGEPNFNIGYIDTWMGLSPFIVNQINGPLIDIPRVMQNDQPITTEKEALDYIVRLGQFDKLAATIIEKQTADAAQNWLPSKVTLQGAIKYLKGFTSGSAEQHPFVNVFREKIEKVDSLTTEQKQSLITQVIAKVSQVVYPAYQSVEKASEQLLSEARSESGIWAQPKGSVYYQDAIKQLGDSELSPTQIHQIGLDEVARISGVMNEILLAQGYTKGTVGERMVALNEEPRFLYEDSIAGREELLSDINGYITEVTAKMAPVFRTTPSYQVEVKSFPVEVQDGAPGGQYTSPAVDGSKPGIYWINLRDMKANPKFGLKTLTYHEANPGHHWQIALNLDQAELPFLRRIAPYNAYTEGWALYSEQVAYELGMYENDPFGDLGRLQAELFRAVRLVVDTGLHDKRWTREQAISYMSEQTGTAESDVVAEIERYMAWPGQALGYKLGMLKILSLREQAKARLGDKFDLAEFHDVVLLNGAVPMAVLSRNVNHWLDNK
protein production: not failed

MATVTKAPKKQIQFADDMQEFTKFPTKTGRRSLSRSISQSSTDSYSSAASYTDSSDDEVSPREKQQTNSKGSSNFCVKNIKQAEFGRREIEIAEQDMSALISLRKRAQGEKPLAGAKIVGCTHITAQTAVLIETLCALGAQCRWSACNIYSTQNEVAAALAEAGVAVFAWKGESEDDFWWCIDRCVNMDGWQANMILDDGGDLTHWVYKKYPNVFKKIRGIVEESVTGVHRLYQLSKAGKLCVPAMNVNDSVTKQKFDNLYCCRESILDGLKRTTDVMFGGKQVVVCGYGEVGKGCCAALKALGAIVYITEIDPICALQACMDGFRVVKLNEVIRQVDVVITCTGNKNVVTREHLDRMKNSCIVCNMGHSNTEIDVTSLRTPELTWERVRSQVDHVIWPDGKRVVLLAEGRLLNLSCSTVPTFVLSITATTQALALIELYNAPEGRYKQDVYLLPKKMDEYVASLHLPSFDAHLTELTDDQAKYLGLNKNGPFKPNYYRY
protein production: failed

MGHHHHHHSHMQPAKEVTKASDGSLLGDLGHTPLSKKEGIKWQRPRLSRQALMRCCLVKWILSSTAPQGSDSSDSELELSTVRHQPEGLDQLQAQTKFTKKELQSLYRGFKNECPTGLVDEDTFKLIYAQFFPQGDATTYAHFLFNAFDADGNGAIHFEDFVVGLSILLRGTVHEKLKWAFNLYDINKDGYITKEEMLAIMKSIYDMMGRHTYPILREDAPAEHVERFFEKMDRNQDGVVTIEEFLEACQKDENIMSSMQLFENVI
protein production: failed

MADWVTGKVTKVQNWTDALFSLTVHAPINPFTAGQFTKLGLEIDGERVQRAYSYVNAPDNPNLEFYLVTVPQGKLSPRLAALKPGDEVQVVSDASGFFVLDEVPDCETLWMLATGTAIGPYLSILQYGQDVARFKNLVLVHAARFAADLSYLPLMLELQQRYEGKLRIQTVVSRENVPGSLTGRVPALIENGELEKAVGLPMDKETSHVMLCGNPQMVRDTQQLLKETRQMTKHLRRRPGHMTAEHYW
protein production: not failed

MLKKMSPSDWRPFYVSIARNMTNGIRGSIGGRLASWACLFQVTCGVAMKMPTLLSVSLLAALSLPAAAQTAPPQDVPFDGTLKIDVDATDLAHRIFKVNITMPAKPGPMTLLYPQWIPGDHSPTGPIDKLAGLVIKVDGKVVPWKRDQFDVYAFKVDVPQGATELTAEFKFLSPQAGNQGRVMMTPEMLNLQWNTTALYPAGYVVRNIKVQASVTLPAGWSYATALETDRRVGDTVSFKPIDFDDLVDSPMFAGKYYKRVELSTGKQPVYLNVFADEAKSLEAKPEQIKAHAALVQQMDKLYGARHFDHYEFLLALTKKLGGIGLEHHRSSENSGPPNYFTEWDKSWTMRDLLAHEFNHSWNGKYRRGADLSTPNFNVPMGDSLLWLYEGQTQFWGEVLAARSGLWTQDQARDMLAGVAATYERGRPGMTWRTLQDTTNDPTMSMRRSKPYRSYQMSEDYYSGAQMMWLEVDSKLRALTNNKRSIDDFAKAFFGMKNGDWDVNPYTFDDIVSTLNGVAAYDWASLLRERMDGHGSLNGGIEANGWKLVYNDEPNLAIKTYESNKNDVSLTYSLGLSLEGSGEVSEVLWDSPAFNAGIINGNSIVAVNGRAFSADVIKDAIKAAKGTAAPIELLVKRGDRYETVRIDYHGGLLYPHLERIAGKPDRLGELYKAR
protein production: failed

MKVLREDEESEIVKQFLDDNNSVIVDFDPIDLYEAVHPPFSIRLSIDRISAMPLSILRRRAAAFVSDPQTLSKLLNNDIAGKFDFIYDNSNRSWQKYYPFSYYRSINAADLYENIKAYTVLDVREPFELIFGSIANSINIPISELREKWKILERDKKYAVICAHGNRSAAAVEFLSQLGLNIVDVEGGIQSWIEEGYPVVYGRESAED
protein production: failed

MGHHHHHHSHMATGQDRVVALVDMDCFFVQVEQRQNPHLRNKPCAVVQYKSWKGGGIIAVSYEARAFGVTRSMWADDAKKLCPDLLLAQVRESRGKANLTKYREASVEVMEIMSRFAVIERASIDEAYVDLTSAVQERLQKLQGQPISADLLPSTYIEGLPQGPTTAEETVQKEGMRKQGLFQWLDSLQIDNLTSPDLQLTVGAVIVEEMRAAIERETGFQCSAGISHNKVLAKLACGLNKPNRQTLVSHGSVPQLFSQMPIRKIRSLGGKLGASVIEILGIEYMGELTQFTESQLQSHFGEKNGSWLYAMCRGIEHDPVKPRQLP
protein production: not failed

MEDVKGKEIIDDAPIDNKVSDEMESEENAIKKKYGGLLPKKIPLISKDHERAFFDSADWALGKQKGQKPKGPLEALRPKLQPTPQQQPRARRMAYSSGETEDTEIDNNEAPDDQACASAVDSTNLKDDGGAKDNIKS
protein production: failed

MKVIMTTKVDKASMNIMNKLIENFGFKETEYVFDGNPVYKRGDVLILTTNDEMIYYDYLDREIENQLGFKPEIIAFASRHSSKQKLPALTTHVTGNWGKAMYGGKDESFAVAIPSAMKLSLLKMSELNDLGWTVCYEATHHGPTELEVPSFFIEIGSSEEEWINDRAGEIIAETIIYVLDNYEKGRSKFKVALGIGGGHYAPKQTKRALEGDLAFGHILPKYAQPVSRDVMIKALNRFGEKVEAIYVDWKGSRGETRQLAKSLAQELGLEFIKD
protein production: not failed

MKTGKELKPGTVIRIDNDPWLVQKAEFTKSGRNSAIMKTKLKNLLTGYKTETVYGADDKLDDVILDRKEATLSFISGDTYTFMDTTDYTMYELNAEDIEAVLPFIEEGMTDVCEAVFFEDRLVSVDLPTTIVRQVDYTEGSARGDTSGKVMKPAKLKNGTELSVADFIEIGDMIEIDTREGGSYKGRAKV
protein production: failed

MSAEVETSEGVDESEKKNSGALEKENQMRMADLSELLKEGTKEAHDRAENTQFVKDFLKGNIKKELFKLATTALYFTYSALEEEMERNKDHPAFAPLYFPMELHRKEALTKDMEYFFGENWEEQVQCPKAAQKYVERIHYIGQNEPELLVAHAYTRYMGDLSGGQVLKKVAQRALKLPSTGEGTQFYLFENVDNAQQFKQLYRARMNALDLNMKTKERIVEEANKAFEYNMQIFNELDQAGSTLARETLEDGFPVHDGKGDMRKCPFYAAEQDKGALEGSSCPFRTAM
protein production: not failed

MLHHVEINVDHLEESIAFWDWLLGELGYEDYQSWSRGKSYKHGKTYLVFVQTEDRFQTPTFHRKRTGLNHLAFHAASREKVDELTQKLKERGDPILYEDRHPFAGGPNHYAVFCEDPNRIKVEIVAP
protein production: not failed

DNMEAVKTFNSELYSLNDYKPPISKAKMTQITKAAIKAIKFYKHVVQSVEKFIQKCKPEYKVPGLYVIDSIVRQSRHQFGQEKDVFAPRFSNNIISTFQNLYRCPGDDKSKIVRVLNLWQKNNVFKSEIIQPLLDMAAG
protein production: not failed

MLLFTPGPVAINEEMRTSFSQPMPHHRTKDFEKIFQSVRENLKKMTGLEEVLLLSSSGTGAMEASVISLCQKELLFVNAGKFGERFGKIAKAHSIKAHELVYEWDTPAQVDEILSVLKANPNIDAFCIQACESSGGLRHPVEKIAQAIKETNPNVFVIVDAITALGVEPLEITHVDALIGGSQKAFMLPPAMSLVALSQNAIERIEERNVGFYFNLKSELKNQRNNTTSYTAPILHTLGLQRYFELVQNLGGFEALYRETKKAALATQKAVLALGLKIFPKSPSLSMTTIVNEHAKELRNLLKEKYQVQFAGGQEPYKDALIRINHMGIIPVYKSAYALNALELALNDLDLREFDGVANATFLKQYYGI
protein production: failed

MIGLMIRVAGQLGRYARLLPATAGMVLVLQVAAQADVLTINGGAKFTNYPMVTLGINAALHGGTVQAMRFSIDDSTWTDWEPVAASKRFKLTEPLSLSFYDVFLQFQQDGVAVPDPPYPAAIVYDDLIDTGFFGGQGVALLGGTGSDRGKGVVVQPDGKLLVVGTVEQAAGNTDIVLWRLTAQGEPDTGFGVQGSVVIDAGTADRAAGVALQGDGKILVLGTVGSATTAWEVRRYDSAGVLDTSFGTGGKYQEGASGANEAGNLLVQPDGRIVIIGSRDVAGAKKIQVIRLTATGVLDSAFNGNTGYYRPNLPGNSFGNGVALQADGKILLVGTYANPSGETDLFVQRLKTDGTLDNFNDGLNNFFMAGDAGNDEGLGIAVQPDGKIVVVGAYQWGAGDTDIWVLRLNENGTRDNDFNAPVGDYKDGDVYNDRAEALVIQPDGKIVVVGSFGYATDTDILVFRLNADGTTDNTIYNFYGFYTINSGDDEGQGVALQPDGNIVLVSTFTREEGDTDIHVHRIFGRKETLSVSTTGGGSVADDLGAFTWVDLSGEGDYLQGDSVALTAAPATGYVFTGWGGDCAGTSPVCTVTMDGAKNVTASFSLDRPAAPTGLSGVPGNGTAGISWTASQESGITGYKVYYGITSGNYATPDPVGTTPAHVISGLMNGVTYYIAVSVLKNGVEGPKSAEITVTPGINLSVTVVGTGGGTVSSAPGGISCLDGSGCSAVFNAAPVVLSATPSAGSIFAGWSGACSGTDGCTVTQYGPVAVTATFTKMPPVKLTAGTTSYYSTIAEAYAACIGGTSCTIETQATELAGNVTLANAIAVLFKGGYDATFSSSPGLTTLQGVVTVGRGSLTAQNVVIR
protein production: failed

MSYKVEAVPDSYAALGEGPHWDVDRQSLYYVDLESAGINRYDFKQNKVYRAKIEGEIFASFILPVENKPQEFAVGCGLRTVIVQWDGVSAVAKVTRTLFEVQPDLKENRLNDAKTDPNGRFYGGTMADSGDIFTQWKGELYSWQAGGQPNAIRSKVGISNGLAWDVKAKKFYFIDTNNHEVLAYDYNQSTGAVSNPKVIFDLRKIRPEGPLFPDGMTVDTDGNIYVATFNGGTVFKVNPSTGKILLEIKIPTTQITSVAFGGPNLDILYVTTANKFDQPKPAGTTFQVTGLNAKGYAGVNLKI
protein production: failed

MRYLLIILAFWLPLQSHAVEFDENTRFLPLGRAVQVFEDPTGTATIDSVSSPAGAQAFRPAPAGTFNAGYSRSAFWLKVELSYRPADADIHNDWLLELAYPPMDRVDFYAPDANGRPTLTWQTGDMLPFASRQFAQNNYLFQLELPPGQTRTLYVRISSEGSVQAPLNLWSTHAYLEAQPTKIYVFGLIYGVLLGMLVYNLFIYLSVREPDYLYYLLYVAAFGLYQMSINGVAIEYLWPDSPWWANASTPFLMALATLFACQFTRSFLGTVRLGRWLDRSLLTLIGAAVLVMCIALFLSYGPALRAATQLVMAGALTIYLAGIVAVVKGERVGRYFVLAWSVFMIGGLVFGLMLMGYMPNTFLTMYASHIGTLLEMAFLSMALADRINHARYQQEQTLLAYGKDLERLNQQLATSNRLKDEFLATLTHELRTPMNGVIGSLEVMQTLDMDDEVEMYQQTAASSARDMMSMINGILTLTELQAGVLYAECSAFAPVDLVDRLRERFSGAAQSKGLTLTLDLDDKLPPGIRGDAGKLYQCLECLVDNAIKFTRKGAVQVRFSGQPQDLERMYLRVEVMDSGIGFSHLDEALLYQHFLQVDGSMTREYGGLGIGLAICRKLVELQGGELSHRSEPGKGSCFTLSIPMLMAVPGAVRRAPEAKAQWGHVSRS
protein production: failed

MKSLGRHLVAEFYECDREVLDNVQLIEQEMKQAAYESGATIVTSTFHRFLPYGVSGVVVISESHLTIHTWPEYGYAAIDLFTCGEDVDPWKAFEHLKKALKAKRVHVVEHERGRYDEIGIPEDSPHKAAV
protein production: not failed

— a protein production outcome set (Wang et al. 2014)
